Measured values from US20200308292A1 (ARMAGEN TECHNOLOGIES, published 2020).

Legend:
[1] = target: T1, human insulin receptor extracellular domain (HIR ECD) (human, UniProt P06213 28-956, limits assumed); assay: ELISA, HIR ECD plated, biotinylated anti-human IgG detection
T1 construct: extracellular domain
Experimental: (§1) The affinity of the fusion protein for the HIR extracellular domain (ECD) was determined with an ELISA. CHO cells permanently transfected with the HIR ECD were grown in serum free media (SFM), and the HIR ECD was purified with a wheat germ agglutinin affinity column, as previously described in Coloma et al. (2000) Pharm Res, 17:266-274. The HIR ECD was plated on Nunc-Maxisorb 96 well dishes and the binding of the HIR Ab, or the HIR Ab-SGSH fusion protein, to the HIR ECD was detected with a biotinylated goat anti-human IgG (H+L) secondary antibody, followed by avidin and biotinylated peroxidase (Vector Labs, Burlingame, Calif.). […] The MW of the HIR Ab is 150 kDa, and the MW of the HIR Ab-SGSH fusion protein is 325 kDa.

[2] = target: T1, human insulin receptor extracellular …; assay: ELISA, HIR ECD plated; after normalization for MW (150 kDa)
Experimental: as §1

[3] = target: T1, human insulin receptor extracellular …; assay: ELISA, HIR ECD plated; after normalization for MW (325 kDa)
Experimental: as §1

Row | EC50 [1] [µg/mL] | EC50 [2] [nM] | EC50 [3] [nM] | Binder
1 | 0.029 | 0.19 | – | chimeric HIRMAb (monoclonal antibody to the human insulin receptor) (antibody, human IgG1, kappa, Its tie to the tested chimeric HIRMAb is indirect; MW 150 kDa; also called HIR Ab; chimeric HIR Ab) heavy: not shown light: DIQMTQSPSSLSASLGERVSLTCRASQDIGGNLYWLQQGPDGTIKRLIYATSSLDSGVPKRFSGSRSGSDYSLTISSLESEDFVDYYCLQYSSSPWTFGGGTKMEIKRTVAAPSVFIFPPSDEQLKSGTASVVCLLNNFYPREAKVQWKVDNALQSGNSQESVTEQDSKDSTYSLSSTLTLSKADYEKHKVYACEVTHQGLSSPVTKSFNRGEC
2 | 0.107 | – | 0.33 | HIRMAb-SGSH fusion protein (antibody, human IgG1, kappa, Cys-514 of SEQ ID NO 10 undergoes post-translational conversion to formylglycine (inferred by the filing from retained enzyme activity), IgG-enzyme fusion, hetero-tetramer, CHO-derived, estimated MW 325 kDa; also called HIR Ab-SGSH fusion protein; HIR Ab-SGSH fusion antibody) heavy: not shown light: DIQMTQSPSSLSASLGERVSLTCRASQDIGGNLYWLQQGPDGTIKRLIYATSSLDSGVPKRFSGSRSGSDYSLTISSLESEDFVDYYCLQYSSSPWTFGGGTKMEIKRTVAAPSVFIFPPSDEQLKSGTASVVCLLNNFYPREAKVQWKVDNALQSGNSQESVTEQDSKDSTYSLSSTLTLSKADYEKHKVYACEVTHQGLSSPVTKSFNRGEC
